Source: publication PMC7486931

Tests used:
[1] = molecular target: T1, VtlR (rVtlR) (Agrobacterium tumefaciens C58) (UniProt A9CI74); assay: EMSA
T1 sequence: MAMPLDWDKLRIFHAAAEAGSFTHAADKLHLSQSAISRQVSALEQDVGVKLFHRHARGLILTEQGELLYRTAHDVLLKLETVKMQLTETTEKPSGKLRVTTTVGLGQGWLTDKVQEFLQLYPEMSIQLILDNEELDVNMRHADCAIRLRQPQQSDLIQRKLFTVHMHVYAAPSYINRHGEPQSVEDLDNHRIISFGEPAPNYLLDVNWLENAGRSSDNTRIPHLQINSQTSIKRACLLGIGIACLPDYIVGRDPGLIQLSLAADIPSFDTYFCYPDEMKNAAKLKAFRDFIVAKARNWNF

[2] = molecular target: T1, VtlR (rVtlR) (Agrobacterium tumefaciens C58); assay: competition

Sequence	binding [1]	binding [2]
GAACTGGGAGGAAAAGCCACCGTGTGCATCAACTGAGAGCTATTTGGTGTTTTTTTGTGCACGAAACAACTCTTTTTTGTGCAGGTCAGGCATGCGTCGCACGCAGCCCTCGATATTTCCGGTATATTTTATGTGCAAAGCTGAAGAAGGGCGCCTGCGCGCCCCTCTTGCTTCTACCTTTACAAGGCTTTGAATTTTAAAGATTATCTTTCGACGTCGATTATTTTTACGTCAGAAGTTCCAGTTCCGC (double strand) [PabcR1]	binds	
GCCGTGGGCAAGCGTGACAGCTAACTAAAATATGGGAGTGGCAAGAATGCAAAACAAGGTTGCATCATGCGATATTTCGCCAATTTGGAGAAAATTCTTGCGGGTAAAAAAAGAGGGCCGCCG (double strand) [PabcR2]		no binding
